According to patent publication US20140087995A1 (published 2014):
Numbered stars: 1 amine (or outer) side, 2 acyl side, 3 side chain; on linkers, the order of the positions; unused ones are H or OH. Bridge positions count the residues as written; N and C are the ends. Side chains are listed from the residue outwards. Ends that are not written are not given here. * marks the point of attachment. C20 diacid = O=C(O)CCCCCCCCCCCCCCCCCCC(=O)*; γGlu = O=C(O)[C@H](CCC(=O)[*:2])N[*:1]; AEEA = NCCOCCOCC(=O)O

T1: human amylin receptor (amylin 3(a) receptor: human calcitonin receptor plus RAMP-3) (human, UniProt P30988 25-474; O60896 24-148)
T1 sequence (looked up) 1: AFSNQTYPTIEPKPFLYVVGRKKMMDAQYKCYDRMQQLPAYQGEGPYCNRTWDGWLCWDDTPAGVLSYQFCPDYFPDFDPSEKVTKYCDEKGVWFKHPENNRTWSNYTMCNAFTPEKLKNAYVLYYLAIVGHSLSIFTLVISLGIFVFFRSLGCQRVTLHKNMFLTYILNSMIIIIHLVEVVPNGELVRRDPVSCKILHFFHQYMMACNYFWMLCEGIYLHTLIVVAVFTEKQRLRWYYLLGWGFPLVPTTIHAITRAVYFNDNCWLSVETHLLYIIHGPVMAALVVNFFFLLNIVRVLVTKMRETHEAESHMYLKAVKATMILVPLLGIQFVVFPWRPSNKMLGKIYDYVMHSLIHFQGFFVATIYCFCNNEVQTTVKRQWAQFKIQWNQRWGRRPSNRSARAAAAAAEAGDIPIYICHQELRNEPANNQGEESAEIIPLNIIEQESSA
T1 sequence (looked up) 2: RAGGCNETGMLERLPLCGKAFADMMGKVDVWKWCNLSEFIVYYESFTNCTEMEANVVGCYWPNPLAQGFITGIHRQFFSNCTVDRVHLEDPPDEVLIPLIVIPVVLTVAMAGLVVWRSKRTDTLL

T2: human calcitonin receptor (human, UniProt P30988 25-474)
T2 sequence (looked up): T1 sequence (looked up) 1

B1: N^ε1-[2-[2-[2-[[2-[2-[2-[[(4S)-4-carboxy-4-(19-carboxynonadecanoylamino)butanoyl]amino]ethoxy]ethoxy]acetyl]amino]ethoxy]ethoxy]acetyl]-[Arg17,Pro21,Pro27,Glu35 … (peptide)
peptide: K([AEEA-AEEA-γGlu-C20 diacid])CNTATCATQRLANFLRHSSPNFGAIPSSTNVGSETY-NH2
modifications: disulfide 2-7; N-terminus assumed
SMILES: CC[C@H](C)[C@H](NC(=O)[C@H](C)NC(=O)CNC(=O)[C@H](Cc1ccccc1)NC(=O)[C@H](CC(N)=O)NC(=O)[C@@H]1CCCN1C(=O)[C@H](CO)NC(=O)[C@H](CO)NC(=O)[C@H](Cc1c[nH]cn1)NC(=O)[C@H](CCCNC(=N)N)NC(=O)[C@H](CC(C)C)NC(=O)[C@H](Cc1ccccc1)NC(=O)[C@H](CC(N)=O)NC(=O)[C@H](C)NC(=O)[C@H](CC(C)C)NC(=O)[C@H](CCCNC(=N)N)NC(=O)[C@H](CCC(N)=O)NC(=O)[C@@H](NC(=O)[C@H](C)NC(=O)[C@@H]1CSSC[C@H](NC(=O)[C@@H](N)CCCCNC(=O)COCCOCCNC(=O)COCCOCCNC(=O)CC[C@H](NC(=O)CCCCCCCCCCCCCCCCCCC(=O)O)C(=O)O)C(=O)N[C@@H](CC(N)=O)C(=O)N[C@@H]([C@@H](C)O)C(=O)N[C@@H](C)C(=O)N[C@@H]([C@@H](C)O)C(=O)N1)[C@@H](C)O)C(=O)N1CCC[C@H]1C(=O)N[C@@H](CO)C(=O)N[C@@H](CO)C(=O)N[C@H](C(=O)N[C@@H](CC(N)=O)C(=O)N[C@H](C(=O)NCC(=O)N[C@@H](CO)C(=O)N[C@@H](CCC(=O)O)C(=O)N[C@H](C(=O)N[C@@H](Cc1ccc(O)cc1)C(N)=O)[C@@H](C)O)C(C)C)[C@@H](C)O
notes: also called compound 25
B2: N^ε1-[2-[2-[2-[[(4S)-4-carboxy-4-(19-carboxynonadecanoylamino)butanoyl]amino]ethoxy]ethoxy]acetyl]-[Arg17,Pro21,Pro27,Pro34,His35]-h-amylin (peptide)
peptide: K([AEEA-γGlu-C20 diacid])CNTATCATQRLANFLRHSSPNFGAIPSSTNVGPHTY-NH2
modifications: disulfide 2-7; N-terminus assumed
SMILES: CC[C@H](C)[C@H](NC(=O)[C@H](C)NC(=O)CNC(=O)[C@H](Cc1ccccc1)NC(=O)[C@H](CC(N)=O)NC(=O)[C@@H]1CCCN1C(=O)[C@H](CO)NC(=O)[C@H](CO)NC(=O)[C@H](Cc1c[nH]cn1)NC(=O)[C@H](CCCNC(=N)N)NC(=O)[C@H](CC(C)C)NC(=O)[C@H](Cc1ccccc1)NC(=O)[C@H](CC(N)=O)NC(=O)[C@H](C)NC(=O)[C@H](CC(C)C)NC(=O)[C@H](CCCNC(=N)N)NC(=O)[C@H](CCC(N)=O)NC(=O)[C@@H](NC(=O)[C@H](C)NC(=O)[C@@H]1CSSC[C@H](NC(=O)[C@@H](N)CCCCNC(=O)COCCOCCNC(=O)CC[C@H](NC(=O)CCCCCCCCCCCCCCCCCCC(=O)O)C(=O)O)C(=O)N[C@@H](CC(N)=O)C(=O)N[C@@H]([C@@H](C)O)C(=O)N[C@@H](C)C(=O)N[C@@H]([C@@H](C)O)C(=O)N1)[C@@H](C)O)C(=O)N1CCC[C@H]1C(=O)N[C@@H](CO)C(=O)N[C@@H](CO)C(=O)N[C@H](C(=O)N[C@@H](CC(N)=O)C(=O)N[C@H](C(=O)NCC(=O)N1CCC[C@H]1C(=O)N[C@@H](Cc1c[nH]cn1)C(=O)N[C@H](C(=O)N[C@@H](Cc1ccc(O)cc1)C(N)=O)[C@@H](C)O)C(C)C)[C@@H](C)O
notes: also called compound 58
B3: N^ε1-[2-[2-[2-[[(4S)-4-carboxy-4-(19-carboxynonadecanoylamino)butanoyl]amino]ethoxy]ethoxy]acetyl]-[Arg17,Pro21,Pro27,Glu35]-h-amylin (peptide)
peptide: K([AEEA-γGlu-C20 diacid])CNTATCATQRLANFLRHSSPNFGAIPSSTNVGSETY-NH2
modifications: disulfide 2-7; N-terminus assumed
SMILES: CC[C@H](C)[C@H](NC(=O)[C@H](C)NC(=O)CNC(=O)[C@H](Cc1ccccc1)NC(=O)[C@H](CC(N)=O)NC(=O)[C@@H]1CCCN1C(=O)[C@H](CO)NC(=O)[C@H](CO)NC(=O)[C@H](Cc1c[nH]cn1)NC(=O)[C@H](CCCNC(=N)N)NC(=O)[C@H](CC(C)C)NC(=O)[C@H](Cc1ccccc1)NC(=O)[C@H](CC(N)=O)NC(=O)[C@H](C)NC(=O)[C@H](CC(C)C)NC(=O)[C@H](CCCNC(=N)N)NC(=O)[C@H](CCC(N)=O)NC(=O)[C@@H](NC(=O)[C@H](C)NC(=O)[C@@H]1CSSC[C@H](NC(=O)[C@@H](N)CCCCNC(=O)COCCOCCNC(=O)CC[C@H](NC(=O)CCCCCCCCCCCCCCCCCCC(=O)O)C(=O)O)C(=O)N[C@@H](CC(N)=O)C(=O)N[C@@H]([C@@H](C)O)C(=O)N[C@@H](C)C(=O)N[C@@H]([C@@H](C)O)C(=O)N1)[C@@H](C)O)C(=O)N1CCC[C@H]1C(=O)N[C@@H](CO)C(=O)N[C@@H](CO)C(=O)N[C@H](C(=O)N[C@@H](CC(N)=O)C(=O)N[C@H](C(=O)NCC(=O)N[C@@H](CO)C(=O)N[C@@H](CCC(=O)O)C(=O)N[C@H](C(=O)N[C@@H](Cc1ccc(O)cc1)C(N)=O)[C@@H](C)O)C(C)C)[C@@H](C)O
notes: also called compound 26
B4: N^ε1-[2-[2-[2-[[(4S)-4-carboxy-4-(19-carboxynonadecanoylamino)butanoyl]amino]ethoxy]ethoxy]acetyl]-[Arg17,Pro21,Pro27,Pro31,His35]-h-amylin (peptide)
peptide: K([AEEA-γGlu-C20 diacid])CNTATCATQRLANFLRHSSPNFGAIPSSTPVGSHTY-NH2
modifications: disulfide 2-7; N-terminus assumed
SMILES: CC[C@H](C)[C@H](NC(=O)[C@H](C)NC(=O)CNC(=O)[C@H](Cc1ccccc1)NC(=O)[C@H](CC(N)=O)NC(=O)[C@@H]1CCCN1C(=O)[C@H](CO)NC(=O)[C@H](CO)NC(=O)[C@H](Cc1c[nH]cn1)NC(=O)[C@H](CCCNC(=N)N)NC(=O)[C@H](CC(C)C)NC(=O)[C@H](Cc1ccccc1)NC(=O)[C@H](CC(N)=O)NC(=O)[C@H](C)NC(=O)[C@H](CC(C)C)NC(=O)[C@H](CCCNC(=N)N)NC(=O)[C@H](CCC(N)=O)NC(=O)[C@@H](NC(=O)[C@H](C)NC(=O)[C@@H]1CSSC[C@H](NC(=O)[C@@H](N)CCCCNC(=O)COCCOCCNC(=O)CC[C@H](NC(=O)CCCCCCCCCCCCCCCCCCC(=O)O)C(=O)O)C(=O)N[C@@H](CC(N)=O)C(=O)N[C@@H]([C@@H](C)O)C(=O)N[C@@H](C)C(=O)N[C@@H]([C@@H](C)O)C(=O)N1)[C@@H](C)O)C(=O)N1CCC[C@H]1C(=O)N[C@@H](CO)C(=O)N[C@@H](CO)C(=O)N[C@H](C(=O)N1CCC[C@H]1C(=O)N[C@H](C(=O)NCC(=O)N[C@@H](CO)C(=O)N[C@@H](Cc1c[nH]cn1)C(=O)N[C@H](C(=O)N[C@@H](Cc1ccc(O)cc1)C(N)=O)[C@@H](C)O)C(C)C)[C@@H](C)O
notes: also called compound 57

Biological target: T1, human amylin receptor (amylin 3(a) …)
Experiment: cell-based or functional assay

Ratio hCT/hAmylin funct. | hAmylin-R funct. EC50 (pM) | Binder
46.2 | 217 pM | B1
21.9 | 47 pM | B2
29.9 | 212 pM | B3
35 | 89 pM | B4

Biological target: T2, human calcitonin receptor
Experiment: cell-based or functional assay

hCTR funct. EC50 (pM) | Binder
10000 pM | B1
1030 pM | B2
6340 pM | B3
3120 pM | B4

Biological target: T1, human amylin receptor (amylin 3(a) …)
Experiment: SPA competition binding, displacement of 125I-rat amylin, membranes of BHK amylin 3(a)/CRE-luc cells
Method: The binding assay was performed using scintillation proximity assay (SPA) beads (RPNQ0001) from PerkinElmer and cell membranes from the Amylin 3(a)/CRE-luc cells (as described in Assay (II)) were used. Membranes were prepared in the following way; the cells were rinsed with PBS and incubated with Versene for approximately 5 min before harvesting. The cells were flushed with PBS and the cell-suspension was centrifuged for 5 min at 1000 rpm. Cells were homogenized (ultrathurrax) in a buffer containing 20 mM Na-HEPES and 10 mM EDTA (pH 7.4) and centrifuged at 20.000 rpm for 15 min. The resulting pellet was resuspended, homogenized and centrifuged (20.000 rpm, 15 min) in a buffer containing 20 mM Na-HEPES and 0.1 mM EDTA (pH 7.4, buffer 2). The resulting pellet was resuspended in buffer 2 and protein concentration was measured (BCA protein Assay, Pierce). The homogenate was kept cold during the whole procedure. The membranes were kept at −80° C. until use. The assay was performed in a 384 well Optiplate (PerkinElmer) in a total volume of 40 ul. Membranes were mixed with SPA beads. Final concentration of membranes 35 ng/μL final and SPA beads was 0.05 mg/well. Test-compounds were dissolved in DMSO and further diluted in assay buffer (50 mM Hepes, pH 7.4, 1 mM CaCl2, 5 mM MgCl₂, 0.1% OA and 0.02% Tween20). […] The final mixture was incubated with shaking at 400 rpm for 120 min at 25° C. prior to centrifugation (1500 rpm, 10 min). Samples were analyzed on TopCounter™ (Packard). The IC₅₀ was calculated using (one site binding competition analysis) GraphPad Prism5 as a measure of receptor affinity.

IC50 | Binder
0.768 nM | B1
0.088 nM | B2
0.532 nM | B3
0.115 nM | B4
